Test results reported in article PMC5499601 (Nucleic Acids Research, 2017).
Changes are numbered by the printed parent chain.

How the values were obtained:
Experiment in all cases: EMSA
[1] = molecular target: T1, BsSpo0J H57E (UniProt P26497 1-282, H57E)
T1 sequence: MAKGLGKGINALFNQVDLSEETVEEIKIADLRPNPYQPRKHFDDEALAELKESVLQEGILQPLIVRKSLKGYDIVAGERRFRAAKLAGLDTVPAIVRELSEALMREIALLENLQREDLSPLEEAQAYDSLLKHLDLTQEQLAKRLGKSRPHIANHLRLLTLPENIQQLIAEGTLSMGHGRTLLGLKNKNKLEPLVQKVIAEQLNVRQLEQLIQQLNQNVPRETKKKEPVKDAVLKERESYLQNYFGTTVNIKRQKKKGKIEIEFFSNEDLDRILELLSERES

[2] = molecular target: T2, BsSpo0J Q140A (UniProt P26497 1-282, Q140A)
T2 sequence: T1 sequence with E57H, Q140A

[3] = molecular target: T3, BsSpo0J Q61R (UniProt P26497 1-282, Q61R)
T3 sequence: T1 sequence with E57H, Q61R

[4] = molecular target: T4, BsSpo0J M104A (UniProt P26497 1-282, M104A)
T4 sequence: T1 sequence with E57H, M104A

[5] = molecular target: T5, BsSpo0J R79A (UniProt P26497 1-282, R79A)
T5 sequence: T1 sequence with E57H, R79A

[6] = molecular target: T6, BsSpo0J F81A (UniProt P26497 1-282, F81A)
T6 sequence: T1 sequence with E57H, F81A

[7] = molecular target: T7, BsSpo0J N112S (UniProt P26497 1-282, N112S)
T7 sequence: T1 sequence with E57H, N112S

[8] = molecular target: T8, BsSpo0J R105E (UniProt P26497 1-282, R105E)
T8 sequence: T1 sequence with E57H, R105E

[9] = molecular target: T9, BsSpo0J WT (UniProt P26497 1-282)
T9 sequence: T1 sequence with E57H

Measured: binding result

B1: 24-bp parS (dsDNA)
DNA 1: AGAATGTTCCACGTGAAACAAAGA
DNA 2: TCTTTGTTTCACGTGGAACATTCT
binds: all assays above
